{
  "source": "paper PMC6232189",
  "about": "“Expression optimization of recombinant cholesterol oxidase in Escherichia coli and its purification and characterization” (AMB Express, 2018)",
  "proteins": {"B1": {"name": "ChOA (cholesterol oxidase from Streptomyces sp. SA-COO) (Streptomyces sp. SA-COO) (protein)", "chain": "DNGGYVPAVVIGTGYGAAVSALRLGEAGVQTLMLEMGQLWNQPGPDGNIFCGMLNPDKRSSWFKNRTEAPLGSFLWLDVVNRNIDPYAGVLDRVNYDQMSVYVGRGVGGGSLVNGGMAVEPKRSYFEEILPRVDSSEMYDRYFPRANSMLRVNHIDTKWFEDTEWYKFARVSREQAGKAGLGTVFVPNVYDFGYMQREAAGEVPKSALATEVIYGNNHGKQSLDKTYLAAALGTGKVTIQTLHQVKTIRQTKDGGYALTVEQKDTDGKLLATKEISCRYLFLGAGSLGSTELLVRARDTGTLPNLNSEVGAGWGPNGNIMTARANHMWNPTGAHQSSIPALGIDAWDNSDSSVFAEIAPMPAGLETWVSLYLAITKNPQRGTFVYDAATDRAKLNWTRDQNAPAVNAAKALFDRINKANGTIYRYDLFGTQLKAFADDFCYHPLGGCVLGKATDDYGRVAGYKNLYVTDGSLIPGSVGVNPFVTITALAERNVERIIKQDVTAS"}},
  "substrate": "CC(C)CCC[C@@H](C)[C@H]1CC[C@H]2[C@@H]3CC=C4C[C@@H](O)CC[C@]4(C)[C@H]3CC[C@]12C",
  "test": "purified protein",
  "assay_type": "biochemical, Streptomyces sp. SA-COO",
  "conditions": "0-1 mM cholesterol, 0.1 M potassium phosphate pH 7, 25 °C",
  "data": [
    {"protein": "B1", "values": [
      {"measurement": "Km", "value": 13, "unit": "µM"}
    ]}
  ]
}
